Source: the DeepSol protein solubility set

Assay: soluble on expression in E. coli; label from the status in PepcDB or PDB records

Sequence	soluble on expression in E. coli
MMIEGLEKMLAKGVDNALLRFGLGKGYLDAGDAERAAEHLQRCVEQDPKYSAGWKLLGKARQAAGDLAGARQAWEQGLATAATHGDKQAEKEMTVFLRKLDRART	not soluble
GSHMNKKSFQCSNCSVTETIRWRNIRSKEGIQCNACFIYQRKYNKTRPVTAVNKYQKRKLKVQETNGVDSF	soluble
PEIAEVVIGVGENAVKIGGEEVLHRHELTFFNPTGFFYDVWDTMDDKALEERCDRVVSYKKFYVGNFLTLDGFAVRCTSGDPKRYREVVKKVASYGKPLILVALDSECMKAALEEVADQRPLMYAATEGNWKEFLKLALEYKVPVTLRAKDLDLLKSMAVTFKQAGVKDIVLDPVTEPLGEGLKGTFERVIQLRRTAIAGQDKDVAYPIMITPIAAWLIEGDDVTKSYWEAVIASIFIVKYGDVMIFRSIDQHVVMPTITLRFNIYTDPRTPVQVEPGLRAINDPGPDDPVFITTNFALTYYTVESDLTSGGIKGWLLVLNTEGLGVEVSVAGGQFTASKVKELIEETKIEEKVNHRYLVIPGLAARLQGAIEDETGWKVLVGPMDSGRIKGWLEKNWP	not soluble
MRKFMMSVVMLAALTSCATQNMHGNYAAVSIEANKTMADVTVAQLVALYPPAHTRLDFQQTITDPYGAALLSALRKKGYSVLEYNPQPQAVPAKSAATAALVTANPTSGLPLSYVVDSPESMNLYRITVQIGVQSISRAFVVATNGNLYPAGAWVRKELEHHHHHH	not soluble
SETESDAEVACDLSNMEITEELRQYFAETERHREELLRRQQLDAERLNSYVNAEHDLYCNTRRSVEAPAERPGERRQAEMKRLYWDSAAKIQAMEANVQLSFDKHCDPKQPNYWPVIPPKF	soluble
MLERIANIQKKLSKSIVERKINEVRKVAAVDVSYKEEKARAALVITTFPEGEVLKTKVIETTVSFPYIPTFFFLRETKPILIATKGETFDVLIVEGHGKAHPRGYGLASHIGVVLRKPTIGVAKRLLKNTPKDTYKKVGKVYVSVGNLITLEDATKIIRAILDESGYPKPLKLADKLSKGRIYEVKNTPSPNRSRKKRGNRGKDNNNSQGNLEHHHHHH	soluble
MQARQPTVAPFDTAKLDRLMEEAGIDVIAATSKHNTQYLMGGYKFIFFAAMDAIGHSRYLPMVIYEKGAPDHSAYVGNRMEGAEHQNNPFWTPAVHTATWGTQDAAGLAVEHLKKIGKASGRIGIEPAFLPSDARDLLASRLDGARFVDATHVLERLRAVKTADELAKLRRASELITDSMLATIAAARAGSTKLEIIEQLRREETNRGLHFEYCLLTLGASHNRAGSPQAWAEGEILSIDSGGNYHGYIGDLCRMGVLGEPDAELEDLLAEVERIQQAAFAKVRAGVLGSEMIVAAEAELKASPSAAFTDFFCHGMGLITHEAPFLMTNHPVAYEGIDADKPLEAGNVISVETTMLHPKRGFIKLEDTLAITDKGYEMFGDRGRGWNRGGVLEHHHHHH	not soluble
MSLGSFTDVPANSQFYTEISWLASQGISTGWVEANGTSTYRPALAVNRDAMAAFMYRLAGSPAYTPPGTSPFIDVTPQTQFYKEIAWLASKGISTGWDEGNGAKSYRPLQTVNRDAMAAFMYRFAGSPAYNAPGASLFTDVVPQTQFYKEINWLASMNISTGWVEGNGTRTFRPVQSVNRDAMAAFMYRYNNAFPAEGHHHHHH	not soluble
MLIDMILAFSVAPTETPNNKAEMADVVAEAIRVVRESGLPNETNAMFTLIEGEWDEVMAVVKKATDAVLAVSPRASLVIKADIRPGYTGQLQQKVASVERVLAGDSES	not soluble
NSYVFDLPHNQHKLTKFAHKGILFNSVHLERDGTLKFPQLKQSKQKPAVSSELKTAIKRIKAGYKKVKPNYKKRQKQQIAELFAKRKQRRSWKNF	not soluble
MGSDKIHHHHHHMNDRFVCSLIEKSDLSNFVKKHSKNVFYDIAKAEAAVHQQTIDTIHFHEVGAIDSIVDIVGFFILWEQLEIEQVYSTPITDGSGTITIAHGVMPIPVPAVMELRKETNLIIQQDFEIKTELVTPTGLAIFKELSPLFVAPEQRLIEKIGYGFGKRETGKFNALRGSIFTETHSKKKRTEHHDQVLKIETNIDNQTPEQLGYVMDLLLEHGALDVFFTPIHMKKNRSAILLTVLTTTEEKEYFTELLFKHTSTIGMRFQTMERSVMDRSFKILETPFGKVHIKKNHYHGLLKESIEYQDCERIAKQYNFTIEEVYRLVQTLNNKTID	not soluble
MYEPLHRDAEQKDTAPHDPISILLLGIDERPGDKGRPDSMIVMTVNPKTKKTTMTSIPRDTRVFIKSKNKFSKMNSAYTYGGIEGTVETVEQFLNIPINYYIKINMDGFKDIVDAIGGVTVDNRIDFTLEGVHLSKGKQHLDGKTALTYARMRKDDPRGDFGRQERQREIINEIIHEGAQLKSLTNYQEILAALEKNIKTNLTLDKMIDIQSSYKEAAKDIKQVEIEGEDKKVDSLWYHLVTDEKRMEISKKLRQQLDLKSLEHHHHHH	soluble
GPGSMRISERAFMDIAIGTKAPRRIVFKLFPRKCPSAVKNFIELCSGNVSTDTYESGNRDKLISESALPQLTYKNSTFHRVEKGYLIQGGDIVTGRGTEQLSIYGGTFSAPEEVRASVFDKPGLVGTASSSPNAHGSQFFILTAKEANHLNGTCICFGQVADGLDVVQEIEQVPIDPSGFPSLKVSIVDCGVLE	soluble
MVSYKLTYFDGRGAGELCRQIFAAAEQKYEDNRLTDEEWEKFKAAGKTPYNQLPMLEVDGKPLAQSHAMARYLAREFGFNGKSRWEEAQVNSLADQYKDYYAEARPYLAVKLGYTEGDAEALYTSVYLPVFKKHYGFFVNALKASGSGFLVGNSLTFIDLLVAQHSADLLGREKSDLFNDVPEMKAHSEKVQSIPQIKKWIETRPASDW	not soluble
MGSDKIHHHHHHMKVKWSRDFSIKNMQLDKQHELIFEITNLANDLALNIQDNNTQHKNDLKQILVKLFQYIKIHFKDEEKFMESIDFPLIEEHKKSHQILVEKTKELLEHSNDIVKMSQELSILTKDWILDHFANEDLWIANFTKKTLHLQEIHYTLEQYIKLKSIKQDLRAEKTYDYICNCSLRIHAVPQTIHQELVSKENTLKCEKCGQILVHLDYFDLNQNFEKFNAIFEDALQNHHFTTQENDMRGGG	not soluble
MIVLNCIRYLGMTDINEIGRLTLYEYDLLMTGKALAAVDESHKAHKQAWINHQVTATKLVGGKKNKKEVPVYKKFKDFFDYEEEIRKITQEIDEGYDKKGMDLLLKANL	not soluble
SIGLTVEDLLSLRQVVSGNPEALAPLLENISARYPQLREHIMANPEVFVSMLLEA	soluble
MSLSETATQAPQPANVLLEVNDLRVTFATPDGDVTAVNDLNFTLRAGETLGIVGESGSGKSQTAFALMGLLATNGRIGGSATFNGREILNLPERELNTLRAEQISMIFQDPMTSLNPYMRVGEQLMEVLMLHKGMSKAEAFEESVRMLDAVKMPEARKRMKMYPHEFSGGMRQRVMIAMALLCRPKLLIADEPTTALDVTVQAQIMTLLNELKREFNTAIIMITHDLGVVAGICDKVLVMYAGRTMEYGKARDVFYQPVHPYSIGLLNAVPRLDSEGAEMLTIPGNPPNLLRLPKGCPFQPRCPHAMEICNNAPPLEAFSPGRLRACFKPVEELL	not soluble
MRWLLVVAGLLAAGGLAQTPPPPAAQTAEQNPLRLGVQLYALGRYDAALTLFERALKENPQDPEALYWLARTQLKLGLVNPALENGKTLVARTPRYLGGYMVLSEAYVALYRQAEDRERGKGYLEQALSVLKDAERVNPRYAPLHLQRGLVYALLGERDKAEASLKQALALEDTPEIRSALAELYLSMGRLDEALAQYAKALEQAPKDLDLRVRYASALLLKGKAEEAARVLEEGHRIKPLNAEGWYTLGQAYLALGRTKEAGVALENAVALAPLRFPAAYYYLGQVYLALGDYPKAKSRLTVAVRLEPKRAEYRYSLCLANEKLGDKEGARYQCQEALKLRPDYKEAEEVLKRL	soluble
MIEYAALKFNVVSDPMSETAKKVIVGMSGGVDSSVSAWLLQQQGYQVEGLFMKNWEEDDGEEYCTAAADLADAQAVCDKLGIELHTVNFAAEYWDNVFELFLAEYKAGRTPNPDILCNKEIKFKAFLEFAAEDLGADYIATGHYVRRADVDGKSRLLRGLDSNKDQSYFLYTLSHEQIAQSLFPVGELEKPQVRKIAEDLGLVTAKKKDSTGICFIGERKFREFLGRYLPAQPGKIITVDGDEIGEHQGLMYHTLGQRKGLGIGGTKEGTEEPWYVVDKDVENNILVVAQGHEHPRLMSVGLIAQQLHWVDREPFTGTMRCTVKTRYRQTDIPCTVKALDDDRIKVIFDEPVAAVTPGQSAVFYNGEVCLGGGIIEQRLPLPVLEHHHHHH	soluble
MQPKLIILRGNSGSGKTTIANALHQCLKEQSLLISQDVVRREMLRVKDETGNLSIALLKQLVAFGYQECQYVIVEGIFQKAIYHSFFQEIIHLFEGNVQVYYFDISFEETLKRHSQRNKNQEFGVVEMKRWWLPEDYLGFPGEQRLSEQLSEKQIIRQILADIQ	not soluble
SEENEEEEELRPTALYTVGGSDEFTFVSPDGLSGQYTGPDHDGVVLQTENPAPTNCLAYYFEVHIMNAGEKGEIAIGFSKEHIYSEGYTVRSCAYIGNSGLICSQNGDGDRTVAKASDTYTTGDLVGCGIDSVSQEFFFTKNGTIVGTIPRQFRRPVYPTIVLHSQNEAVTVNFGGQIAFSFDFEVRSYFSFLA	soluble
MGSDKIHHHHHHMEKDKKIPAKIYPFYPNGQFYFERGVEAFRDQRIKEAIRYLVRASELEPGEAVILCQLAICYTEIGQFHKSNQLLREVLEQRNGNMEYCYYFIANNFAYMKDYRRALQYANRYLDSSTDGEYTEEAKDLIEVLLEETPFGETIENGFSKLEQEFYSYKKEINRYLAEEDSASACDILRKVIDEKPNFWPAYNQLASLYFEQLKEEEGVRVLSDLLSRNPGNLLGICDLFIYHFYKGNRKEADELYLELRDVLPVLAHHKEKLGLIHAMMGEYEEADDLLEQVADLEVTERSKYYYFRAKSSYYLGDVEGAKMFWHSFLECDLYEDVRFPWEQEPDLTNDTRLVLEMLQEEDDLTHMLGVYALTISGNRPELVLFHPLLDMSDWSYMEHLMFTNFDYFPDGAIEQNGYLIAKAMIILKENGILLNEEYMALYKQMFSLVLIDAGKDLILGRYTIETVASAIAKLFLPHLKLQLVEEFECSKCARDIERVLSR	not soluble
MALEGLKTSCCRPNEPLTTNSMAIAQEKAQHQQRSSLRNMTRPMIGRSGPKEASMTTRTRRETIVFAHPFRLRGIDRELPAGAYDVITDEELIEGLSFPVFRRVATMITVPCAPPRQSAVEMLTIEPDALRDARQADSSTSRA	not soluble
MNNSKTNQQMNTSMGYPLTVYDECNKFQLIVPTLDANIMLWCIGQLSLLNDSNGCKHLFWQPNDKSNVRILLNNYDYGHLFKYLQCQRKCSVYIGEGTLKKYNLTISTSFDNFLDLTPSEEKESLCREDAHEDPVSPKAGSEEEISPNSTSNVVVSRECLDNFMKQLLKLEESLNKLELEQKVTNKEPNHRISGTIDIPEDRSELVNFFTELKTVKQLEDVFQRYHDYERLSQECDSKTEIASDHSKKETKIEVEPPNERSLQITMNQRDNSLYFQLFNNTNSVLAGNCKLKFTDAGDKPTTQIIDMGPHEIGIKEYKEYRYFPYALDLEAGSTIEIENQYGEVIFLGKYGSSPMINLRPPSRLSAESLQASQEPFYSFQIDTLPELDDSSIISTSISLSYDGDDNEKALTWEEL	soluble
